Experimental data reported in publication PMC11024299, “Probing the active site of Class 3 L-asparaginase by mutagenesis. I. Tinkering with the zinc coordination site of ReAV” (Frontiers in Chemistry, 2024).
Positions count from the first letter of the chain named. In names and notes the source's numbering stands.

Legend:
ReAV = target: T1, ReAV (Rhizobium etli, UniProt Q2K0Z2); experiment: multiple injection isothermal titration calorimetry (ITC-MIM); type: biochemical; conditions: 10 mM Tris-HCl pH 9.0, 37 °C, no added Zn2+; WT values cited to the same group's earlier paper (Sliwiak et al., 2024); cited from earlier work
T1 construct: gene ansA; recombinant from plasmid pET151-D-ReAV in E. coli BL21 Gold (DE3); His-tag cut with TEV protease; homodimer, Zn site C135/K138/C189
Excerpt: (§1) multiple injection isothermal titration calorimetry (ITC-MIM) on ReAV

[1] = substrate: NC(=O)C[C@H](N)C(=O)O; experiment: as above; type: biochemical, Rhizobium etli; conditions: 10 mM Tris-HCl pH 9.0, 37 °C, no added Zn2+
Excerpt: as §1

[2] = target: the molecule itself; experiment: crystal structure; vapor diffusion crystals grown at 19°C, protein supplemented with 0.5%-1% DDM; data at 100 K; molecular replacement with WT ReAV (PDB 7os5); homodimer(s) in the asymmetric unit

T1 sequence (Q2K0Z2 entry or part of it): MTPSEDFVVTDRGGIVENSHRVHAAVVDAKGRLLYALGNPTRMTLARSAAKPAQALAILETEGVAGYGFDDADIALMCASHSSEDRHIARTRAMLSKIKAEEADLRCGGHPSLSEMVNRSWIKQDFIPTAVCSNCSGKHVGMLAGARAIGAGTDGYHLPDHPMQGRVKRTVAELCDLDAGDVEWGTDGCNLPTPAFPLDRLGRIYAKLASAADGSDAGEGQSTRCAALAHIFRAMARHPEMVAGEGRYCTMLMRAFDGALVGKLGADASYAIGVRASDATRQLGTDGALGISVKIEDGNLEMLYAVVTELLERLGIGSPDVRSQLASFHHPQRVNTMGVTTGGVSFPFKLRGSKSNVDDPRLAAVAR

Molecule: NC(=O)C[C@H](N)C(=O)O [L-asparagine]
- Km (ReAV): 2700 ± 100 µM

B1: ReAV H139A (enzyme, Rhizobium etli)
chain: MTPSEDFVVTDRGGIVENSHRVHAAVVDAKGRLLYALGNPTRMTLARSAAKPAQALAILETEGVAGYGFDDADIALMCASHSSEDRHIARTRAMLSKIKAEEADLRCGGHPSLSEMVNRSWIKQDFIPTAVCSNCSGKAVGMLAGARAIGAGTDGYHLPDHPMQGRVKRTVAELCDLDAGDVEWGTDGCNLPTPAFPLDRLGRIYAKLASAADGSDAGEGQSTRCAALAHIFRAMARHPEMVAGEGRYCTMLMRAFDGALVGKLGADASYAIGVRASDATRQLGTDGALGISVKIEDGNLEMLYAVVTELLERLGIGSPDVRSQLASFHHPQRVNTMGVTTGGVSFPFKLRGSKSNVDDPRLAAVAR
notes: Homodimer in the crystal (two dimers per asymmetric unit); also called H139A mutant; Rhizobium etli Class 3 L-asparaginase ReAV H139A mutein; source: E. coli BL21 Gold, purified (HisTrap, TEV digestion, Superdex 200)
- Km [1]: 5600 ± 200 µM
- kcat [1]: 445 ± 20 s⁻¹
- kcat/Km [1]: 80000 ± 1000 M⁻¹ s⁻¹
- binding result [2]: binds

B2: ReAV K138A (enzyme, Rhizobium etli)
chain: B1 chain with K138A, A139H
notes: Homodimer in the crystal (two dimers per asymmetric unit); also called K138A mutant; Rhizobium etli Class 3 L-asparaginase ReAV K138A mutein; source: E. coli BL21 Gold, purified (HisTrap, TEV digestion, Superdex 200)
- binding result [2]: binds

B3: ReAV C189A (enzyme, Rhizobium etli)
chain: B1 chain with A139H, C189A
notes: Homodimer in the crystal (one dimer per asymmetric unit); also called C189A mutant; Rhizobium etli Class 3 L-asparaginase ReAV C189A mutein; source: E. coli BL21 Gold, purified (HisTrap, TEV digestion, Superdex 200)
- binding result [2]: binds

B4: ReAV D187A (enzyme, Rhizobium etli)
chain: B1 chain with A139H, D187A
notes: Homodimer in the crystal (two dimers per asymmetric unit); also called D187A mutant; Rhizobium etli Class 3 L-asparaginase ReAV D187A mutein; source: E. coli BL21 Gold, purified (HisTrap, TEV digestion, Superdex 200)
- binding result [2]: binds

B5: ReAV C135A (enzyme, Rhizobium etli)
chain: B1 chain with C135A, A139H
notes: Homodimer in the crystal (one dimer per asymmetric unit); also called C135A mutant; Rhizobium etli Class 3 L-asparaginase ReAV C135A mutein; source: E. coli BL21 Gold, purified (HisTrap, TEV digestion, Superdex 200)
- binding result [2]: binds
